Consider one molecule from patent US20110008302A1, “Compositions and methods for immortalizing cells and screening for anti-cancer agents” (priority 2007, published 2011).

The assay has as its system MEFs. In words: Stimulation of serum-starved MEFs with growth factors or serum (Ezh2, Ndy1, miR-101 levels). Format: cell-based, mouse. To be noted: serum-starved MEFs, 24 hours after stimulation. How it is done:
MEFs were transfected with control siRNA and stimulated with serum (10%) for 1, 4, 12 and 18 hours. (upper) Nuclear extracts were probed with antibody specific for Ezh2 and for CREB, levels of which served as loading control. (lower) Ndy1 and Ezh2 mRNA levels were measured with real time RT-PCR; GAPDH mRNA levels were used as internal control. Data are expressed as mean±SD.
Serum starved MEFs were stimulated with each of FGF-2 (20 ng/ml), IGF-1 (20 ng/ml), PDGF (20 ng/ml), serum (10%), VEGF (20 ng/ml), EGF (20 ng/ml) or TNFα (50 ng/ml). Nuclear extracts were probed with antibody specific for Ezh2 and for CREB, levels of which served as loading control.
Data are expressed as mean±SD.
MEFs transfected with control siRNA were stimulated with FGF-2 for 1, 4, 12 or 18 hours. (upper) Nuclear extracts were probed with antibody specific for Ezh2. CREB levels served as loading control. (middle) Ndy1 and Ezh2 mRNA were measured with real time RT-PCR; GAPDH mRNA levels were used as internal control. Data are expressed as mean±SD. (lower) miR-101 levels were measured with real time RT-PCR; U6 small nuclear RNA levels were used as internal control. Data are expressed as mean±SD. […]

B1: EGF: growth factor, R&D systems (protein, UniProt P01133 23-1207, looked up)
Pro-epidermal growth factor: PQHWSCPEGTLAGNGNSTCVGPAPFLIFSHGNSIFRIDTEGTNYEQLVVDAGVSVIMDFHYNEKRIYWVDLERQLLQRVFLNGSRQERVCNIEKNVSGMAINWINEEVIWSNQQEGIITVTDMKGNNSHILLSALKYPANVAVDPVERFIFWSSEVAGSLYRADLDGVGVKALLETSEKITAVSLDVLDKRLFWIQYNREGSNSLICSCDYDGGSVHISKHPTQHNLFAMSLFGDRIFYSTWKMKTIWIANKHTGKDMVRINLHSSFVPLGELKVVHPLAQPKAEDDTWEPEQKLCKLRKGNCSSTVCGQDLQSHLCMCAEGYALSRDRKYCEDVNECAFWNHGCTLGCKNTPGSYYCTCPVGFVLLPDGKRCHQLVSCPRNVSECSHDCVLTSEGPLCFCPEGSVLERDGKTCSGCSSPDNGGCSQLCVPLSPVSWECDCFPGYDLQLDEKSCAASGPQPFLLFANSQDIRHMHFDGTDYGTLLSQQMGMVYALDHDPVENKIYFAHTALKWIERANMDGSQRERLIEEGVDVPEGLAVDWIGRRFYWTDRGKSLIGRSDLNGKRSKIITKENISQPRGIAVHPMAKRLFWTDTGINPRIESSSLQGLGRLVIASSDLIWPSGITIDFLTDKLYWCDAKQSVIEMANLDGSKRRRLTQNDVGHPFAVAVFEDYVWFSDWAMPSVMRVNKRTGKDRVRLQGSMLKPSSLVVVHPLAKPGADPCLYQNGGCEHICKKRLGTAWCSCREGFMKASDGKTCLALDGHQLLAGGEVDLKNQVTPLDILSKTRVSEDNITESQHMLVAEIMVSDQDDCAPVGCSMYARCISEGEDATCQCLKGFAGDGKLCSDIDECEMGVPVCPPASSKCINTEGGYVCRCSEGYQGDGIHCLDIDECQLGEHSCGENASCTNTEGGYTCMCAGRLSEPGLICPDSTPPPHLREDDHHYSVRNSDSECPLSHDGYCLHDGVCMYIEALDKYACNCVVGYIGERCQYRDLKWWELRHAGHGQQQKVIVVAVCVVVLVMLLLLSLWGAHYYRTQKLLSKNPKNPYEESSRDVRSRRPADTEDGMSSCPQPWFVVIKEHQDLKNGGQPVAGEDGQAADGSMQPTSWRQEPQLCGMGTEQGCWIPVSSDKGSCPQVMERSFHMPSYGTQTLEGGVEKPHSLLSANPLWQQRALDPPHQMELTQ
modifications: Pro-epidermal growth factor
notes: growth factor, R&D systems
For the molecule B1, the “level at which Ezh2 expression is induced” value was “at both the RNA and protein levels”. For the same molecule, for the setting “20 ng/ml (serum 10%)”, the Ezh2 expression result is “significantly upregulated”.
